Test results published in patent US20100197009A1.

Legend:
[1] = biological target: biotinylated HLA-A2-AviTag/MelanApeptide/β2 microglobulin complex; assay: flow cytometry of streptavidin M280 beads coated with 0.015 µg of the biotinylated complex, stained with FITC anti-HLA ABC
[2] = biological target: biotinylated HLA-A2-AviTag/MelanApeptide/β2 microglobulin complex; assay: flow cytometry of streptavidin M280 beads coated with the biotinylated complex (saturating, 2 µg), stained with FITC anti-HLA ABC
[3] = biological target: biotinylated HLA-A2-AviTag/MelanApeptide/β2 microglobulin complex; assay: flow cytometry of streptavidin M280 beads saturated with the biotinylated complex, stained with anti-HLA-ABC, legend of FIG. 4

MFI [1]: 24.5 MFI
MFI [2]: 300 MFI
MFI [3]: 305 MFI
Substance: streptavidin on M280 beads (Dynal) (from UniProt P22629 37-163)
